The values that follow come from PMC8350387, “Solution Structure of the dATP-Inactivated Class I Ribonucleotide Reductase From Leeuwenhoekiella blandensis by SAXS and Cryo-Electron Microscopy” (Frontiers in Molecular Biosciences, 2021).

Data set [1] concerns the target Leeuwenhoekiella blandensis class I ribonucleotide reductase radical-generating subunit NrdB (LbNrdB) (Leeuwenhoekiella blandensis). The experiment in a line: SEC-SAXS; LbNrdB alone, 350 μL of 11 mg/ml with 1 mM dATP loaded on Superdex S200; SEC buffer 50 mM Tris-HCl pH 7.6, 300 mM NaCl, 2 mM DTT, 1 mM Mg acetate, 0.4 mM dATP, 5% glycerol. Background: SEC sorts molecules by how far they enter the pores of the column.

Data set [2] has the same target. The experiment in a line: cryo-EM structure; LbNrdAB complex formed with dATP, isolated on Superdex 200 with on-column 0.05% glutaraldehyde cross-linking in HEPES buffer; single particle reconstruction at 8.2 Å, no symmetry imposed.
The target is the same in data set [3]. The experiment in a line: SEC-SAXS; LbNrdA and LbNrdB mixed at 85 μM each with 1 mM dATP and 2 mM magnesium acetate, 5 min, on Superdex S200; SEC buffer 50 mM Tris-HCl pH 7.6, 300 mM NaCl, 2 mM DTT, 1 mM Mg acetate, 0.4 mM dATP, 5% glycerol.
Data set [4] deals with the molecule itself. The experiment in a line: SAXS; batch mode, LbNrdA 0.625-5 mg/ml in 50 mM Tris-HCl pH 7.6, 300 mM NaCl, 2 mM DTT, 5% glycerol, 2 mM magnesium acetate, 1 mM dATP; 10 °C.

As for “Leeuwenhoekiella blandensis class I ribonucleotide reductase radical-generating subunit NrdB (LbNrdB) (enzyme)”, the stoichiometry N in data set [1], in data set [2] and in data set [3] was 4 in each case.

B1: Leeuwenhoekiella blandensis class I ribonucleotide reductase catalytic subunit NrdA (LbNrdA) (enzyme, UniProt A3XHF8 1-600, looked up)
chain: MRENTTKLENSTETNVQHTKDNDLLKARRDALQDATEKNTDEPSFDWLTEHSRSFLAAGYLSEGVSAEERIREIADRAEEILRMPGFSDKFYKYMGEGYFSLASPVWSNFGKKRGLPISCFGSHIDDDMGNILYTQSEVGMMSKLGGGTSGYFGKIRHRGAAVKNNGYASGAVHIMQLFDKMVDVVSQGSVRRGRFSPYLPISHPDIKEFLEIGTEGNSIQQLTHGVTVDSTWMQEMIDGDTDKREVWAKVLQRRGEMGYPYIFYTDNANNGKPDVYKDKGHDIYASNLCTEIMLPSSDEWSFVCVLSSINVLHYDKWKNTDAVETMVCFLDAVLTEFIDKLEEYRDSDNRDHRQTFMFMERAYNFAKSNRALGLGVLGWHSLLQSKRHAFDSQEAYDLNSEIFREIKQRSYKASEELAEKFGEPETLKGYGRRNATLNAIAPTTSSAFILGQVSQGIEPIWSNVYVKDIAKIKTTIKNPFLEELFEEKGMNTPEVWRSVRDNDGSVQHLEFLTEQEKDVFKTYAEIDQMAIIYQAANRQNHIDQGQSINLLVHPDMPIKEINKIHITAWKLGLKSLYYQHSMNAAQKFKQKKECVSCEA
notes: NrdA (α subunit, subclass NrdAi, lacks an ATP-cone) of Leeuwenhoekiella blandensis; the homology model covers residues 40-596 and lacks 43 terminal residues per monomer; Dimer (α2) with dATP by SAXS; also called α2 (dimer); source: purified as described previously (Rozman Grinberg et al., 2018a); not shown: His6, N-terminal, kept
In the case of B1, the stoichiometry N (LbNrdA per LbNrdB (α4β4)) in data set [3] came to 1. Further, the stoichiometry N (as a rule, a count of units in the complex or per binding partner) in data set [4] came to 2.
